The target in assay [1] is PDPN ectodomain, monomeric, Avi-tagged, site-specifically biotinylated (Fc tag removed) (human) (UniProt Q86YL7).
Assay [2] addresses CD177 recombinant ectodomain, Fc-tagged (human) (UniProt Q8N6Q3). In words: SPR; CLEC-2 or CD177 ectodomains immobilised by amine coupling, 300-400 resonance units; Avi-tagged monomeric PDPN ectodomain as analyte; equilibrium fit for CD177, Langmuir model for CLEC-2. Background: SPR reads the build-up and loss of mass on a sensor chip optically.
Assay [3] deals with T1, CLEC-2 recombinant ectodomain, Fc-tagged (human, UniProt Q9P126 55-229).
T1 construct: C-type lectin receptor CLEC-2 (CLEC1B), human, ectodomain; The methods describe a general pRK5 vector with a C-terminal human Fc tag; CLEC-2 is a type II membrane protein, so the real end of the Fc may differ; also called Clec1b; recombinant human CLEC-2
T1 sequence (Q9P126 55-229): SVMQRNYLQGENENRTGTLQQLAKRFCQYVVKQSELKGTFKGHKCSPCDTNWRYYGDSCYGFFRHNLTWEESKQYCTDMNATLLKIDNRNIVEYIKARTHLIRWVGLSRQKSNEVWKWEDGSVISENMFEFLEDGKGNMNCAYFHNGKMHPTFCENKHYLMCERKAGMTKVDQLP
Described as above. The conditions noted are these: both partners purified.

For assay [4], the target named is T1, CLEC-2 recombinant ectodomain, Fc-tagged. Nature of the assay: SPR; CLEC-2 or CD177 ectodomains immobilised by amine coupling on GLC (Proteon XPR36) or CM5 (Biacore 3000) chips; Avi-Fc-tagged PDPN as soluble analyte at the indicated concentrations; PBS with 0.01% Tween-20 (Proteon) or HBS-P pH 7.4 (Biacore). As to conditions: both partners purified.

Sequence of CD177 recombinant ectodomain, Fc-tagged (human) (Q8N6Q3 22-408): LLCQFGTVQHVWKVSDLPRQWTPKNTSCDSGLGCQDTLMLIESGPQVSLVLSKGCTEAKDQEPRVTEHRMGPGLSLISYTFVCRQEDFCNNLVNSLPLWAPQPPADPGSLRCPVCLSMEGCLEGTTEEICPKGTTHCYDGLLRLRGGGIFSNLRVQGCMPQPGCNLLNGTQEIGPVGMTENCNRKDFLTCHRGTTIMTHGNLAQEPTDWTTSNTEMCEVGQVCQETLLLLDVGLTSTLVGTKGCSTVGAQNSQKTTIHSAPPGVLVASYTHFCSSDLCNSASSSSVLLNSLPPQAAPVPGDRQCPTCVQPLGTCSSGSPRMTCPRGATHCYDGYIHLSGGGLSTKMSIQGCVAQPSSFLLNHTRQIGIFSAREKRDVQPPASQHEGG

In the case of “CD177 recombinant ectodomain, Fc-tagged (from UniProt Q8N6Q3 22-408) (Fc fusion)”, in assay [1], the inhibition of CAF contractility (gel contraction assay) by recombinant CD177 amounted to 20%.

B1: PDPN ectodomain, monomeric, Avi-tagged, site-specifically biotinylated (Fc tag removed) (domain or fragment, human, UniProt Q86YL7 23-131, looked up)
chain: ASTGQPEDDTETTGLEGGVAMPGAEDDVVTPGTSEDRYKSGLTTLVATSVNSVTGIRIEDLPTSESTVHAQEQSPSATASNVATSHSTEKVDGDTQTTVEKDGLSTVTL
modifications: biotin on the Avi tag (site-specific, in vitro, BirA)
notes: podoplanin (PDPN), human, ectodomain; the methods describe biotinylation of the Avi-tagged product after removal of the Fc; Also used here as the PDPN of the functional rows (there PDPN is endogenous on fibroblasts); also called podoplanin; gp38; source: mammalian cells, purified; biotinylated in vitro with BirA; not shown: Fc (human IgG1), C-terminal, cleaved
What is called Kd is the constant that tells how readily two partners part at equilibrium. As for B1, the Kd in assay [2] was determined as 3.3 µM; in assay [3], 0.21 ± 0.0003 µM.

B2: PDPN ectodomain, Avi-Fc-tagged (Fc fusion, human, UniProt Q86YL7 23-131, looked up)
chain: ASTGQPEDDTETTGLEGGVAMPGAEDDVVTPGTSEDRYKSGLTTLVATSVNSVTGIRIEDLPTSESTVHAQEQSPSATASNVATSHSTEKVDGDTQTTVEKDGLSTVTL
notes: podoplanin (PDPN), human, ectodomain; pRK5 vector with C-terminal human IgG1 Fc; also called Avi-Fc-tagged PDPN; AviFc-tagged PDPN; source: mammalian cells, purified; not shown: Fc (human IgG1), C-terminal, kept
With B2, in assay [4], the binding result is on record as “binds”.

Values taken from PMC8654239, “The neutrophil protein CD177 is a novel PDPN receptor that regulates human cancer-associated fibroblast physiology” (PLoS ONE, 2021).
